Measurements taken from the supplement of paper PMC10567573.

B1: NR2F2 (parent)
chain: VAHVESLQEKSQCALEEYVRSQYP

Variants of: B1
Assay: protein stability index of a GFP-peptide fusion (GPS, HEK-293T) (PSI 1-6); higher = more stable
Conditions: c terminus: a fixed tail appended
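Note: lentivirally expressed fusions sorted by FACS into six bins by GFP to DsRed ratio, PSI derived from sequencing read proportions per bin multiplied by bin number.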

Variant	protein stability index
VAHVESLQEKSQPALEEYVRSQYP [C13P]	3.92
VAHVESLQEKSQYALEEYVRSQYP [C13Y]	3.83
VAHVESLQEKSQGALEEYVRSQYP [C13G]	4
VAHVESLQEKSQSALEEYVRSQYP [C13S]	4.24
VAHVESLQEKSQNALEEYVRSQYP [C13N]	4.47
VAHVESLQEKSQWALEEYVRSQYP [C13W]	3.54
VAHVESLQEKSQVALEEYVRSQYP [C13V]	4.05
VAHVESLQEKSQRALEEYVRSQYP [C13R]	4.23
VAHVESLQEKSQTALEEYVRSQYP [C13T]	4.28
VAHVESLQEKSQLALEEYVRSQYP [C13L]	3.92
VAHVESLQEKSQQALEEYVRSQYP [C13Q]	4.55
VAHVESLQEKSQIALEEYVRSQYP [C13I]	3.45
VAHVESLQEKSQHALEEYVRSQYP [C13H]	4.4
VAHVESLQEKSQKALEEYVRSQYP [C13K]	3.99
VAHVESLQEKSQMALEEYVRSQYP [C13M]	3.98
VAHVESLQEKSQCALEEYVSSQYP [R20S]	3.65
VAHVESLQEKSQCALEEYVPSQYP [R20P]	4.16
VAHVESLQEKSQCALEEYVGSQYP [R20G]	4.17
VAHVESLQEKSQCALEEYVMSQYP [R20M]	3.19
VAHVESLQEKSQCALEEYVHSQYP [R20H]	3.86
VAHVESLQEKSQCALEEYVVSQYP [R20V]	3.72
VAHVESLQEKSQCALEEYVQSQYP [R20Q]	4.3
VAHVESLQEKSQCALEEYVNSQYP [R20N]	3.14
VAHVESLQEKSQCALEEYVDSQYP [R20D]	4.71

Variant	protein stability index
VAHVESLQEKSQCALEEYVISQYP [R20I]	3.36
VAHVESLQEKSQCALEEYVLSQYP [R20L]	2.67
VAHVESLQEKSQCALEEYVKSQYP [R20K]	4.18
VAHVESLQEKSQCALEEYVFSQYP [R20F]	2.71
VAHVESLQEKSQCALEEYVTSQYP [R20T]	3.72
VAHVESLQEKSQCALEEYVYSQYP [R20Y]	3.26
VAHVESLQEKSQCALEEYVCSQYP [R20C]	3.87
VAHVESLQEKSQCALEEYVESQYP [R20E]	4.51
VAHVESLQEKSQCALEEYVWSQYP [R20W]	2.56
VAHVESLQEKSQCALEEYVASQYP [R20A]	3.49
VAHVESLQEKSQCKLEEYVRSQYP [A14K]	3.88
VAHVESLQEKSQCMLEEYVRSQYP [A14M]	3.81
VAHVESLQEKSQCCLEEYVRSQYP [A14C]	3.41
VAHVESLQEKSQCFLEEYVRSQYP [A14F]	2.76
VAHVESLQEKSQCLLEEYVRSQYP [A14L]	2.88
VAHVESLQEKSQCNLEEYVRSQYP [A14N]	4.22
VAHVESLQEKSQCPLEEYVRSQYP [A14P]	4.11
VAHVESLQEKSQCRLEEYVRSQYP [A14R]	3.43
VAHVESLQEKSQCHLEEYVRSQYP [A14H]	4.08
VAHVESLQEKSQCWLEEYVRSQYP [A14W]	2.5
VAHVESLQEKSQCYLEEYVRSQYP [A14Y]	3.19
VAHVESLQEKSQCVLEEYVRSQYP [A14V]	3.83
VAHVESLQEKSQCILEEYVRSQYP [A14I]	3.75
VAHVESLQEKSQCDLEEYVRSQYP [A14D]	4.79

Variant	protein stability index
VAHVESLQEKSQCGLEEYVRSQYP [A14G]	3.6
VAHVESLQEKSQCELEEYVRSQYP [A14E]	4.68
VAHVESLQEKSQCSLEEYVRSQYP [A14S]	3.78
VAHVESLQEKSQCQLEEYVRSQYP [A14Q]	3.57
VAHVESLQEKSQCTLEEYVRSQYP [A14T]	3.92
VAHVESLQEKSQCALEKYVRSQYP [E17K]	3.81
VAHVESLQEKSQCALETYVRSQYP [E17T]	3.62
VAHVESLQEKSQCALEGYVRSQYP [E17G]	3.45
VAHVESLQEKSQCALELYVRSQYP [E17L]	2.49
VAHVESLQEKSQCALEQYVRSQYP [E17Q]	3.27
VAHVESLQEKSQCALEIYVRSQYP [E17I]	2.3
VAHVESLQEKSQCALEAYVRSQYP [E17A]	2.12
VAHVESLQEKSQCALEVYVRSQYP [E17V]	2.26
VAHVESLQEKSQCALESYVRSQYP [E17S]	3.36
VAHVESLQEKSQCALEPYVRSQYP [E17P]	3.5
VAHVESLQEKSQCALEWYVRSQYP [E17W]	2.11
VAHVESLQEKSQCALENYVRSQYP [E17N]	3.08
VAHVESLQEKSQCALEFYVRSQYP [E17F]	2.34
VAHVESLQEKSQCALEHYVRSQYP [E17H]	2.76
VAHVESLQEKSQCALEMYVRSQYP [E17M]	2.58
VAHVESLQEKSQCALERYVRSQYP [E17R]	3.62
VAHVESLQEKSQCALEDYVRSQYP [E17D]	3.44
VAHVESLQEKSQCALECYVRSQYP [E17C]	2.89
VAHVESLQEKSQCALEYYVRSQYP [E17Y]	2.11

Variant	protein stability index
VAHVESLQEKSQCALEEGVRSQYP [Y18G]	4.33
VAHVESLQEKSQCALEEWVRSQYP [Y18W]	3.66
VAHVESLQEKSQCALEEHVRSQYP [Y18H]	4.2
VAHVESLQEKSQCALEERVRSQYP [Y18R]	4.26
VAHVESLQEKSQCALEEIVRSQYP [Y18I]	3.55
VAHVESLQEKSQCALEEKVRSQYP [Y18K]	3.94
VAHVESLQEKSQCALEEEVRSQYP [Y18E]	4.7
VAHVESLQEKSQCALEECVRSQYP [Y18C]	3.51
VAHVESLQEKSQCALEEPVRSQYP [Y18P]	4.43
VAHVESLQEKSQCALEEMVRSQYP [Y18M]	3.93
VAHVESLQEKSQCALEEDVRSQYP [Y18D]	5.05
VAHVESLQEKSQCALEEFVRSQYP [Y18F]	3.33
VAHVESLQEKSQCALEETVRSQYP [Y18T]	4.42
VAHVESLQEKSQCALEEVVRSQYP [Y18V]	3.75
VAHVESLQEKSQCALEEAVRSQYP [Y18A]	3.97
VAHVESLQEKSQCALEELVRSQYP [Y18L]	3.01
VAHVESLQEKSQCALEESVRSQYP [Y18S]	4.25
VAHVESLQEKSQCALEENVRSQYP [Y18N]	3.91
VAHVESLQEKSQCALEEYVRSFYP [Q22F]	2.44
VAHVESLQEKSQCALEEYVRSEYP [Q22E]	4.31
VAHVESLQEKSQCALEEYVRSHYP [Q22H]	3.56
VAHVESLQEKSQCALEEYVRSDYP [Q22D]	4.15
VAHVESLQEKSQCALEEYVRSMYP [Q22M]	2.87
VAHVESLQEKSQCALEEYVRSCYP [Q22C]	3.19

Variant	protein stability index
VAHVESLQEKSQCALEEYVRSAYP [Q22A]	3.63
VAHVESLQEKSQCALEEYVRSWYP [Q22W]	2.1
VAHVESLQEKSQCALEEYVRSTYP [Q22T]	3.27
VAHVESLQEKSQCALEEYVRSSYP [Q22S]	3.4
VAHVESLQEKSQCALEEYVRSNYP [Q22N]	3.54
VAHVESLQEKSQCALEEYVRSLYP [Q22L]	3.17
VAHVESLQEKSQCALEEYVRSYYP [Q22Y]	3.34
VAHVESLQEKSQCALEEYVRSRYP [Q22R]	3.05
VAHVESLQEKSQCALEEYVRSVYP [Q22V]	3.5
VAHVESLQEKSQCALEEYVRSPYP [Q22P]	3.3
VAHVESLQEKSQCALEEYVRSKYP [Q22K]	3.87
VAHVESLQEKSQCALEEYVRSIYP [Q22I]	2.6
VAHVESLQEKSQCALEEYVRSGYP [Q22G]	3.82
VAHVESLQEKSQCALEEYVRYQYP [S21Y]	2.89
VAHVESLQEKSQCALEEYVRNQYP [S21N]	3.92
VAHVESLQEKSQCALEEYVRDQYP [S21D]	3.77
VAHVESLQEKSQCALEEYVRFQYP [S21F]	2.56
VAHVESLQEKSQCALEEYVRRQYP [S21R]	3.13
VAHVESLQEKSQCALEEYVRQQYP [S21Q]	3.53
VAHVESLQEKSQCALEEYVRWQYP [S21W]	2.24
VAHVESLQEKSQCALEEYVRVQYP [S21V]	3.34
VAHVESLQEKSQCALEEYVRLQYP [S21L]	3.46
VAHVESLQEKSQCALEEYVRTQYP [S21T]	3.95
VAHVESLQEKSQCALEEYVRGQYP [S21G]	3.67

Variant	protein stability index
VAHVESLQEKSQCALEEYVREQYP [S21E]	3.77
VAHVESLQEKSQCALEEYVRCQYP [S21C]	3.38
VAHVESLQEKSQCALEEYVRMQYP [S21M]	3.33
VAHVESLQEKSQCALEEYVRKQYP [S21K]	3.15
VAHVESLQEKSQCALEEYVRPQYP [S21P]	4.04
VAHVESLQEKSQCALEEYVRHQYP [S21H]	3.46
VAHVESLQEKSQCALEEYVRIQYP [S21I]	3.02
VAHVESLQEKSQCALEEYVRAQYP [S21A]	3.25
VAHVESLQEKSQCALPEYVRSQYP [E16P]	3.74
VAHVESLQEKSQCALKEYVRSQYP [E16K]	3.7
VAHVESLQEKSQCALNEYVRSQYP [E16N]	3.63
VAHVESLQEKSQCALMEYVRSQYP [E16M]	2.89
VAHVESLQEKSQCALQEYVRSQYP [E16Q]	3.68
VAHVESLQEKSQCALHEYVRSQYP [E16H]	3.16
VAHVESLQEKSQCALDEYVRSQYP [E16D]	3.62
VAHVESLQEKSQCALGEYVRSQYP [E16G]	3.21
VAHVESLQEKSQCALREYVRSQYP [E16R]	3.65
VAHVESLQEKSQCALYEYVRSQYP [E16Y]	2.11
VAHVESLQEKSQCALFEYVRSQYP [E16F]	2.35
VAHVESLQEKSQCALSEYVRSQYP [E16S]	3.37
VAHVESLQEKSQCALTEYVRSQYP [E16T]	3.29
VAHVESLQEKSQCALWEYVRSQYP [E16W]	2.23
VAHVESLQEKSQCALCEYVRSQYP [E16C]	3.63
VAHVESLQEKSQCALAEYVRSQYP [E16A]	3.59

Variant	protein stability index
VAHVESLQEKSQCALIEYVRSQYP [E16I]	3.7
VAHVESLQEKSQCALLEYVRSQYP [E16L]	3.3
VAHVESLQEKSQCALVEYVRSQYP [E16V]	3.36
VAHVESLQEKSQCALEEYVRSQDP [Y23D]	4.53
VAHVESLQEKSQCALEEYVRSQCP [Y23C]	4.13
VAHVESLQEKSQCALEEYVRSQAP [Y23A]	4.1
VAHVESLQEKSQCALEEYGRSQYP [V19G]	3.39
VAHVESLQEKSQCALEEYNRSQYP [V19N]	4.13
VAHVESLQEKSQCALEEYWRSQYP [V19W]	3.06
VAHVESLQEKSQCALEEYSRSQYP [V19S]	4.08
VAHVESLQEKSQCALEEYTRSQYP [V19T]	3.67
VAHVESLQEKSQCALEEYLRSQYP [V19L]	3.17
VAHVESLQEKSQCALEEYCRSQYP [V19C]	3.7
VAHVESLQEKSQCALEEYIRSQYP [V19I]	3.63
VAHVESLQEKSQCALEEYPRSQYP [V19P]	4.73
VAHVESLQEKSQCALEEYARSQYP [V19A]	3.49
VAHVESLQEKSQCALEEYFRSQYP [V19F]	3.34
VAHVESLQEKSQCALEEYERSQYP [V19E]	5.1
VAHVESLQEKSQCALEEYRRSQYP [V19R]	3.85
VAHVESLQEKSQCALEEYQRSQYP [V19Q]	4.03
VAHVESLQEKSQCALEEYHRSQYP [V19H]	4.24
VAHVESLQEKSQCALEEYMRSQYP [V19M]	3.65
VAHVESLQEKSQCALEEYDRSQYP [V19D]	4.26
VAHVESLQEKSQCALEEYYRSQYP [V19Y]	3.56

Variant	protein stability index
VAHVESLQEKSQCALEEYKRSQYP [V19K]	4.04
VAHVESLQEKSQCAVEEYVRSQYP [L15V]	4.51
VAHVESLQEKSQCAEEEYVRSQYP [L15E]	5.03
VAHVESLQEKSQCAGEEYVRSQYP [L15G]	4.89
VAHVESLQEKSQCADEEYVRSQYP [L15D]	4.88
VAHVESLQEKSQCASEEYVRSQYP [L15S]	4.33
VAHVESLQEKSQCAHEEYVRSQYP [L15H]	4.35
VAHVESLQEKSQCAFEEYVRSQYP [L15F]	3.48
VAHVESLQEKSQCAQEEYVRSQYP [L15Q]	4.73
VAHVESLQEKSQCAIEEYVRSQYP [L15I]	3.89
VAHVESLQEKSQCACEEYVRSQYP [L15C]	4.01
VAHVESLQEKSQCAREEYVRSQYP [L15R]	4.37
VAHVESLQEKSQCAYEEYVRSQYP [L15Y]	4.04
VAHVESLQEKSQCAMEEYVRSQYP [L15M]	3.84
VAHVESLQEKSQCAWEEYVRSQYP [L15W]	2.33
VAHVESLQEKSQCAKEEYVRSQYP [L15K]	4.3
VAHVESLQEKSQCAAEEYVRSQYP [L15A]	4.75
VAHVESLQEKSQCANEEYVRSQYP [L15N]	4.42
VAHVESLQEKSQCAPEEYVRSQYP [L15P]	4.88
VAHVESLQEKSQCATEEYVRSQYP [L15T]	4.91
